# Measured values taken from the supplement of paper PMC9112550, “Optimization of the antimicrobial peptide Bac7 by deep mutational scanning” (BMC Biology, 2022).
# Test system: Escherichia coli TOP10
# Assay: shrunken log2 fold change of peptide-encoding DNA abundance (4.5 h post-induction vs induction); higher = less antimicrobial activity (less host growth inhibition)
# Conditions: time post-induction: 4.5 h; library: site-saturation at positions 5, 18, 19, 20
# 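Further: peptides expressed intracellularly from a pBAD plasmid library in pooled LB shake-flask culture, induced with 0.3% L-arabinose, DNA abundance read by NGS, three biological replicates, DESeq2 with apeglm shrinkage.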
row,Sequence,shrunken log2 fold change
1,RRIRSRPPRLPRPRPRPFAGPRP,-0.00284
2,RRIRSRPPRLPRPRPRPKFAPRP,0.0751
3,RRIRKRPPRLPRPRPRPPFFPRP,0.476
4,RRIRQRPPRLPRPRPRPTAQPRP,0.0588
5,RRIRDRPPRLPRPRPRPPIPPRP,-0.0554
6,RRIRSRPPRLPRPRPRPALGPRP,0.505
7,RRIRERPPRLPRPRPRPQDNPRP,-0.0327
8,RRIRSRPPRLPRPRPRPYGKPRP,-0.0603
9,RRIRMRPPRLPRPRPRPFNQPRP,-0.0903
10,RRIRCRPPRLPRPRPRPVEQPRP,-0.0247
11,RRIRSRPPRLPRPRPRPVFHPRP,-0.026
12,RRIRPRPPRLPRPRPRPFSKPRP,-0.0785
13,RRIRWRPPRLPRPRPRPRMCPRP,0.272
14,RRIRFRPPRLPRPRPRPKHMPRP,-0.52
15,RRIRARPPRLPRPRPRPGHNPRP,-0.0862
16,RRIRLRPPRLPRPRPRPTHFPRP,0.362
17,RRIRCRPPRLPRPRPRPPAEPRP,1.18
18,RRIRERPPRLPRPRPRPRWNPRP,-0.0995
19,RRIRHRPPRLPRPRPRPAYQPRP,-0.0802
20,RRIRKRPPRLPRPRPRPYTRPRP,-0.167
21,RRIRWRPPRLPRPRPRPYIIPRP,-1.11
22,RRIRCRPPRLPRPRPRPHPVPRP,-0.207
23,RRIRGRPPRLPRPRPRPSEVPRP,0.425
24,RRIRQRPPRLPRPRPRPYTRPRP,-0.0062
25,RRIRTRPPRLPRPRPRPDEDPRP,0.0169

row,Sequence,shrunken log2 fold change
1,RRIRYRPPRLPRPRPRPTKTPRP,-0.0705
2,RRIRFRPPRLPRPRPRPGVWPRP,0.507
3,RRIRSRPPRLPRPRPRPIMRPRP,0.73
4,RRIRCRPPRLPRPRPRPMFHPRP,-0.723
5,RRIRRRPPRLPRPRPRPCFDPRP,0.1
6,RRIRKRPPRLPRPRPRPTAEPRP,0.079
7,RRIRTRPPRLPRPRPRPVWMPRP,-0.0336
8,RRIRFRPPRLPRPRPRPGLNPRP,0.207
9,RRIRVRPPRLPRPRPRPQDLPRP,-0.0193
10,RRIRCRPPRLPRPRPRPDLGPRP,0.43
11,RRIRSRPPRLPRPRPRPSCEPRP,-0.0887
12,RRIRIRPPRLPRPRPRPQDQPRP,-0.242
13,RRIRQRPPRLPRPRPRPSLHPRP,-0.64
14,RRIRDRPPRLPRPRPRPCVMPRP,0.543
15,RRIRWRPPRLPRPRPRPPKDPRP,0.0853
16,RRIRIRPPRLPRPRPRPPSYPRP,-0.336
17,RRIRERPPRLPRPRPRPVLLPRP,-0.388
18,RRIRIRPPRLPRPRPRPMSPPRP,0.111
19,RRIRMRPPRLPRPRPRPYAIPRP,-0.0168
20,RRIRYRPPRLPRPRPRPRFTPRP,-0.17
21,RRIRERPPRLPRPRPRPMCLPRP,-0.38
22,RRIRARPPRLPRPRPRPRWKPRP,0.462
23,RRIRGRPPRLPRPRPRPMMCPRP,0.0367
24,RRIRLRPPRLPRPRPRPSAIPRP,-0.189
25,RRIRKRPPRLPRPRPRPQECPRP,-0.00957

row,Sequence,shrunken log2 fold change
1,RRIRNRPPRLPRPRPRPKLYPRP,-0.289
2,RRIRYRPPRLPRPRPRPHEGPRP,-0.199
3,RRIRARPPRLPRPRPRPPHAPRP,0.964
4,RRIRKRPPRLPRPRPRPDRAPRP,0.115
5,RRIRNRPPRLPRPRPRPNDSPRP,-0.235
6,RRIRLRPPRLPRPRPRPKIHPRP,-0.312
7,RRIRYRPPRLPRPRPRPAAPPRP,0.726
8,RRIRDRPPRLPRPRPRPQQDPRP,0.0798
9,RRIRYRPPRLPRPRPRPSQKPRP,-0.359
10,RRIRHRPPRLPRPRPRPIDSPRP,-0.0116
11,RRIRVRPPRLPRPRPRPLDFPRP,-0.147
12,RRIRCRPPRLPRPRPRPWGKPRP,-0.102
13,RRIRLRPPRLPRPRPRPYSVPRP,0.0375
14,RRIRARPPRLPRPRPRPDCKPRP,-0.129
15,RRIRMRPPRLPRPRPRPSTRPRP,0.406
16,RRIRWRPPRLPRPRPRPKVSPRP,0.198
17,RRIRVRPPRLPRPRPRPFDYPRP,-0.221
18,RRIRCRPPRLPRPRPRPYFYPRP,-1
19,RRIRDRPPRLPRPRPRPSPSPRP,-0.018
20,RRIRYRPPRLPRPRPRPPAHPRP,0.178
21,RRIRSRPPRLPRPRPRPNFWPRP,0.0869
22,RRIRCRPPRLPRPRPRPHAFPRP,-0.647
23,RRIRFRPPRLPRPRPRPATPPRP,0.315
24,RRIRQRPPRLPRPRPRPYKCPRP,-0.334
25,RRIRSRPPRLPRPRPRPNFHPRP,-0.171

row,Sequence,shrunken log2 fold change
1,RRIRQRPPRLPRPRPRPKPRPRP,0.309
2,RRIRQRPPRLPRPRPRPARCPRP,0.174
3,RRIRCRPPRLPRPRPRPYTIPRP,-0.342
4,RRIRHRPPRLPRPRPRPTYMPRP,-0.435
5,RRIRIRPPRLPRPRPRPKITPRP,-0.83
6,RRIRMRPPRLPRPRPRPSYQPRP,-0.115
7,RRIRMRPPRLPRPRPRPSIFPRP,0.00177
8,RRIRLRPPRLPRPRPRPSDNPRP,-0.49
9,RRIRQRPPRLPRPRPRPSINPRP,-0.806
10,RRIRDRPPRLPRPRPRPSSMPRP,-0.292
11,RRIRRRPPRLPRPRPRPLECPRP,0.0527
12,RRIRMRPPRLPRPRPRPDHSPRP,0.318
13,RRIRQRPPRLPRPRPRPNEKPRP,-0.0522
14,RRIRMRPPRLPRPRPRPMWLPRP,0.208
15,RRIRRRPPRLPRPRPRPEKAPRP,0.0304
16,RRIRRRPPRLPRPRPRPCWDPRP,0.234
17,RRIRGRPPRLPRPRPRPVLFPRP,0.752
18,RRIRWRPPRLPRPRPRPIERPRP,0.0857
19,RRIRIRPPRLPRPRPRPHINPRP,-0.853
20,RRIRNRPPRLPRPRPRPVWLPRP,0.0895
21,RRIRARPPRLPRPRPRPDCLPRP,0.948
22,RRIRNRPPRLPRPRPRPSTIPRP,0.0179
23,RRIRHRPPRLPRPRPRPTNHPRP,-0.457
24,RRIRMRPPRLPRPRPRPHWCPRP,-0.153
25,RRIRYRPPRLPRPRPRPEMMPRP,-0.0745

row,Sequence,shrunken log2 fold change
1,RRIRWRPPRLPRPRPRPNYRPRP,-0.034
2,RRIRMRPPRLPRPRPRPGCQPRP,0.719
3,RRIRMRPPRLPRPRPRPSIRPRP,0.0426
4,RRIRGRPPRLPRPRPRPKIWPRP,0.64
5,RRIRERPPRLPRPRPRPLMHPRP,-0.231
6,RRIRPRPPRLPRPRPRPALCPRP,0.371
7,RRIRRRPPRLPRPRPRPSEIPRP,0.0269
8,RRIRIRPPRLPRPRPRPTCNPRP,-0.313
9,RRIRARPPRLPRPRPRPEYNPRP,0.102
10,RRIRIRPPRLPRPRPRPTYVPRP,-0.0344
11,RRIRVRPPRLPRPRPRPVMTPRP,0.0124
12,RRIRTRPPRLPRPRPRPDDLPRP,0.0162
13,RRIRTRPPRLPRPRPRPMHSPRP,0.02
14,RRIRERPPRLPRPRPRPDGWPRP,0.0267
15,RRIRARPPRLPRPRPRPLYMPRP,-0.48
16,RRIRNRPPRLPRPRPRPYHIPRP,-0.366
17,RRIRCRPPRLPRPRPRPVWCPRP,-0.269
18,RRIRPRPPRLPRPRPRPKECPRP,0.241
19,RRIRVRPPRLPRPRPRPLICPRP,-0.0443
20,RRIRGRPPRLPRPRPRPTHIPRP,0.255
21,RRIRIRPPRLPRPRPRPGDIPRP,-0.0899
22,RRIRARPPRLPRPRPRPGQAPRP,-0.0216
23,RRIRARPPRLPRPRPRPQGSPRP,0.4
24,RRIRLRPPRLPRPRPRPHKEPRP,0.0165
25,RRIRTRPPRLPRPRPRPSRFPRP,0.244

row,Sequence,shrunken log2 fold change
1,RRIRVRPPRLPRPRPRPDGSPRP,-0.0225
2,RRIRCRPPRLPRPRPRPTMDPRP,-0.237
3,RRIRLRPPRLPRPRPRPQWIPRP,-0.0288
4,RRIRMRPPRLPRPRPRPDLSPRP,1.58
5,RRIRVRPPRLPRPRPRPMGKPRP,-0.0406
6,RRIRFRPPRLPRPRPRPRKIPRP,0.0429
7,RRIRHRPPRLPRPRPRPPYPPRP,-0.0246
8,RRIRTRPPRLPRPRPRPNWGPRP,-0.0445
9,RRIRWRPPRLPRPRPRPAWNPRP,0.155
10,RRIRGRPPRLPRPRPRPCAYPRP,0.0946
11,RRIRFRPPRLPRPRPRPELLPRP,0.146
12,RRIRERPPRLPRPRPRPCHAPRP,-0.301
13,RRIRQRPPRLPRPRPRPMGKPRP,-0.167
14,RRIRDRPPRLPRPRPRPSASPRP,0.259
15,RRIRVRPPRLPRPRPRPLLIPRP,-0.304
16,RRIRDRPPRLPRPRPRPLPIPRP,0.162
17,RRIRRRPPRLPRPRPRPSFMPRP,-0.106
18,RRIRERPPRLPRPRPRPYFRPRP,-0.622
19,RRIRPRPPRLPRPRPRPWERPRP,0.0097
20,RRIRSRPPRLPRPRPRPKILPRP,-0.112
21,RRIRWRPPRLPRPRPRPIEKPRP,-0.221
22,RRIRFRPPRLPRPRPRPGVHPRP,-0.0827
23,RRIRPRPPRLPRPRPRPSWVPRP,0.0466
24,RRIRLRPPRLPRPRPRPPMAPRP,0.0265
25,RRIRGRPPRLPRPRPRPCVFPRP,0.664
